According to patent US20240294570:

Tests used:
[1] = system: T1, L-phosphopentapeptide 5, NBD-βA-LLLLpY
T1 sequence: XLLLLX

[2] = system: T2, phosphopentapeptide 7, NBD-βA-LLpYLL
T2 sequence: XLLXLL

[3] = system: T3, phosphopentapeptide 9, NBD-βA-llllpY
T3 sequence: LLLLY

[4] = system: T4, phosphopeptide 3, NBD-βA-LLLpY
T4 sequence: XLLLX

Alkaline phosphatase (Biomatik, Cat. No. A1130)
conversion of 5 to 6 after 1 hour, 0.1 U/mL ALP [1]: After 1 hour of incubation, 32.7% of 5 turns into 6 | conversion of 5 to 6 after 2 hours, 0.1 U/mL ALP [1]: After 2 hours of incubation of 5 with 0.1 U/mL of ALP, 49.6% of 5 becomes 6 | dephosphorylation ratio after 5 hours, 400 µM of 5, 0.5 U/mL ALP [1]: After 5 hours of incubation, 400 µM of 5 results in a dephosphorylation ratio of 93.8% | final dephosphorylation ratio, 5 (400 µM), 0.1 U/mL ALP [1]: the final dephosphorylation ratio is 69.1% | fraction of 5 hydrolyzed at 40 minutes, 0.1 U/mL ALP [1]: At the time point 40 minutes, about 24% of 5 is hydrolyzed by ALP | conversion ratio of 7 to 8 after 5 h, 0.5 U/mL ALP [2]: After 5 h of incubation, the conversion ratio of 7 to 8 is 61.5% | conversion ratio of 9 to 10 after 5 hours, 0.5 U/mL ALP [3]: After 5 hours of incubation, the conversion ratio of 9 to 10 is 93.3% | dephosphorylation catalyzed by ALP [4]: 3 is able to turn into 4 upon dephosphorylation catalyzed by ALP
